Laboratory results as given in patent publication US20230212305A1, “ANTI-ABCG2 ANTIBODIES AND USES THEREOF” (Kenjockety Biotechnology, Inc., priority 2020, published 2023).
Entries after “also recorded” stand apart in the source; their conditions may differ.

B1: G2.343 rat: anti-ABCG2 antibody raised in rat (antibody, V domains shown)
VH: SVQLKESGPGLVQPSQTLSLTCTVSGFSLTSNGVSWVRQPPGKGLEWIAAISSGGSTYYNSVLKSRLSISRDTSKSQVFLKMNSLQTEDTAIYFCTRDTYYGYNQIPFVYWGQGTLVTVSS
VL: DVVLAQTPPTLSATIGQSVSISCRSSQSLLHSSGNTYLNWLLQRPGQPPQLLIYLVSRLESRVPNRFSGSGSGTDFTLKISGVEAEDLGVYYCVQSTHAPRTFGGGTKLELK
B2: G2.302 mouse: anti-ABCG2 antibody raised in mouse, listed in Table 2 (antibody, V domains shown)
VH: QIQLQQSGPELVRPGASVKISCKASGYTFTDYYINWVKQRPGQGLEWIGWIYPGNVNVKYNEKFKGKATLTVDTSSSTGYMQLRSLTSEDSAVYFCARSIGLRYFDNWGQGTTLTVSS
VL: EKVLTQSPAIMSASLGEKVTMSCRASSSVHYMYWHQQKSDASPRLWIYYTSNLAPGVPARFSGSGSGNFYSLTISSVEDEDGATYYCQQFTTSTWTFGGGTKLEIK
B3: G2.65 mouse: anti-ABCG2 antibody raised in mouse, listed in Table 2 (antibody, V domains shown)
VH: QGQMHQSGAELVKPGASVKLSCKTSGFTFNSGYISWLKQKPRQSLEWIAWIYAGTGISNFNQKFTGKAQLTVDTSSSTAYMQLSSLTSADSAIYFCASGARKTLDFWGQGTSVTVSS
VL: DIQMTQSSSYLSVSVGGRVTITCKASDQINYWLAWYQQKPGNAPRLLISGATSLETGVPSRFSGSGSGKDYTLSITSFQTEDVATYYCQQYWTTPYTFGGGTKVEIK

Experiments:
[1] = system: cynomolgus ABCG2; experiment: Flow cytometry binding to 293T cells overexpressing cynomolgus ABCG2; set-up: key to Cynomolgus ABCG2 binding: binding=“+”; non-significant binding=“−”; conditions: for binding to 293 cells overexpressing cynomolgus ABCG2 (cG2): FACS, FIG. 1
Sequence of cynomolgus ABCG2 (as listed by the source): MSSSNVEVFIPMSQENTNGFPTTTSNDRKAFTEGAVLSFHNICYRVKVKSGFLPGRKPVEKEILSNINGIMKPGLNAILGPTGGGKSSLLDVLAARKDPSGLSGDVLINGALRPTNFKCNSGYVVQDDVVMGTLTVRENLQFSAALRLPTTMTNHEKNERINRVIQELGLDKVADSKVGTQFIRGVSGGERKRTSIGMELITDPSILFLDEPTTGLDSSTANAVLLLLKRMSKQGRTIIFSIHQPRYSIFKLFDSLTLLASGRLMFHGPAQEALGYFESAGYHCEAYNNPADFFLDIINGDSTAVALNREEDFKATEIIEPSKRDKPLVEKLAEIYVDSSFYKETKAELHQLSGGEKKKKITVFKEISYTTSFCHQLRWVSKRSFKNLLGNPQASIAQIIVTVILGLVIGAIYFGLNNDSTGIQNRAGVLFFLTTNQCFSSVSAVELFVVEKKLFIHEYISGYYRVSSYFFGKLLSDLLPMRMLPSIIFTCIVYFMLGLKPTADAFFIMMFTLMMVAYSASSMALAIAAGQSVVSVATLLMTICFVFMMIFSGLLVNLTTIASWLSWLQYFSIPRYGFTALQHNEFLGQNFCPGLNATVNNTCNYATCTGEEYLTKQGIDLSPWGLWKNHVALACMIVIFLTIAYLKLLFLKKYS
How it was run: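 293T cells stably overexpressing cynomolgus ABCG2 were incubated on ice for 30 min with antibody at 5 ug/mL or serial dilutions from 100 ug/mL. Bound antibody detected with PE-labelled anti-human IgG F(ab′)2 by flow cytometry; EC50 taken as concentration giving half-maximal response.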

[2] = molecular target: T1, ABCG2 (Homo sapiens, UniProt Q9UNQ0); type: cell-based
T1 construct: expressed in transfected cells
T1 sequence (Q9UNQ0 1-655): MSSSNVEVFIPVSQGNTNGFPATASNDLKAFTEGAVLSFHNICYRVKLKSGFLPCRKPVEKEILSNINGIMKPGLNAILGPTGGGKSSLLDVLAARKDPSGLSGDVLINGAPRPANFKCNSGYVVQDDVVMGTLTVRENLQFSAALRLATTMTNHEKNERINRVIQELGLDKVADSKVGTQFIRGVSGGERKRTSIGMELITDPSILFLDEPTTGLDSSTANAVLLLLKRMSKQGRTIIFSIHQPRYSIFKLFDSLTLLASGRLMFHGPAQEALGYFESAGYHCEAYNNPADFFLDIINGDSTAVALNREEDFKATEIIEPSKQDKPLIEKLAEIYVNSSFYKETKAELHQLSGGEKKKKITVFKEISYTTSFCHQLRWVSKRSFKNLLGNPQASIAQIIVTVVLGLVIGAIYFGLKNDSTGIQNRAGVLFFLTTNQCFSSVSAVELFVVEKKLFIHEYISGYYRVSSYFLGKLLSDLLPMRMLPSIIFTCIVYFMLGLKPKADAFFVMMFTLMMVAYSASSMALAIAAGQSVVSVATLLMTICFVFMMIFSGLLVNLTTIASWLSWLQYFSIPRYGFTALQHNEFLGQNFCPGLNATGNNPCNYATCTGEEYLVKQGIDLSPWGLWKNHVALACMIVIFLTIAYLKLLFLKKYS
How it was run: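 293T cells overexpressing ABCG2 (2×10e6 cells/ml, phenol red-free DMEM) treated with antibodies or inhibitors at 1 μM final, then loaded with 2.5 μM mitoxantrone 1 h at 37° C. After washing, mitoxantrone retention read as fluorescence (ex 635, em 647 nm) to measure efflux blockade.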

[3] = system: Panc1/T300 cells; experiment: Xenograft study with topotecan-resistant Panc1/T300 cells; type: in vivo
Method: PANC1 (ATCC, CRL-1469) is a pancreatic ductal epithelial carcinoma cell line. The topotectan-resistant Panc1/T300 cells were developed by continuously incubating PANC1 cells in the culture medium containing increasing concentration of topotecan of 25, 50, 100, 200 and 300 nM. […] The arrows indicate the dosing schedule.

[4] = system: A549 (ATCC, CCL-185); experiment: Xenograft study with NSCLC cell line A549; type: in vivo
[5] = molecular target: T1, ABCG2; experiment: Flow cytometry binding to 293T cells overexpressing human ABCG2 (293T_ABCG2_OX); set-up: key to Binding by FACS: binding=“+”; non-significant binding=“−”; conditions: for Binding by FACS: 293T_ABCG2_OX cells; for binding to 293 cells overexpressing human ABCG2 (hG2): FACS, FIG. 1
How it was run: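 Antibodies serially diluted (from 100 ug/mL or about 666 nM) and incubated 30 min on ice with 293T cells stably expressing human or cynomolgus ABCG2, in PBS/2% FBS/0.02% azide. Bound antibody detected by PE anti-human IgG F(ab′)2, 20 min on ice, flow cytometry; EC50 = concentration giving half-maximal signal.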

[6] = system: HEK 293 naïve cells; experiment: FACS binding to HEK 293 naïve cells; set-up: species or system human; conditions: FIG. 1
[7] = system: 293T_ABCG2_OX cells; type: cell-based, human; conditions: cell killing by topotecan on 293T_ABCG2_OX cells; viability relative to IgG control
Method: Cytotoxicity Assays. The effect of antibodies on topotecan cytotoxicity was evaluated on 293T_ABCG2_OX cells, 293T cells stably transfected to express ABCG2. Cells were plated in 0.05 mL of Assay Media (DMEM+10% FBS) at 5000 cells/well in white, flat bottom 96-well tissue culture plates. Topotecan was prepared at 2× final assay concentration by serial dilution from 200 uM in assay media containing test antibodies or control antibodies at 100 ug/mL (2× final concentration), or Fumitremorgin C, a small molecule ABCG2 inhibitor at 20 uM (2× final concentration). An equivalent volume (0.05 mL) of the topotecan/antibody mixture was added to the 293T_ABCG2_OX cells in 96-well plates. The plates were then incubated at 37° C., in 5% CO2. After 72-96 hr plates were equilibrated to room temperature and cell viability assessed using Promega® CellTiter-Glo® Luminescent Cell Viability Assay according to the manufacturer's recommended protocol. Luminescence was measured on a Molecular Devices® FlexStation® 3 Multi-Mode Microplate Reader and data analyzed using GraphPad Prism 8.0 software. Half maximal inhibitory concentration (1050) is the concentration of drug (topotecan or other chemotherapy cytotoxic agent) where the response (cell growth) is reduced by 50%.

Row | Molecule | Cynomolgus ABCG2 binding [1] | Block Efflux [2] | tumor volume, in combination with topotecan [3] | tumor volume, in combination with topotecan [4] | Binding by FACS [5] | binding to 293 cells overexpressing cynomolgus ABCG2 (cG2) [1] | binding to 293 cells overexpressing human ABCG2 (hG2) [5] | binding to 293 naïve cells [6] | Killing [7]
1 | B1 | + | + | efficacious in reducing tumor volume | efficacious in reducing tumor volume; also recorded: particularly efficacious | + |  |  |  | 
2 | B2 | + | − |  |  | + | binds | binds | does not significantly bind | − (≥75% of IgG control)
3 | B3 | − | − |  |  | + | does not significantly bind | binds | does not significantly bind | − (≥75% of IgG control)
